Data on two substances can be found in publication PMC12326980.

Holding throughout (assay): purified protein
Details in all cases: 10 mM HEPES pH 7.5, 200 mM NaCl, 15 µM ZnSO4, 50 µg/mL BSA, 30°C

Series [1] has as its system C[C@@H](O)[C@H]1C(=O)N2C(C(=O)O)=C(SCCN=CN)C[C@H]12.
Series [2] has as its system CO/N=C(\C(=O)N[C@@H]1C(=O)N2C(C(=O)O)=C(COC(C)=O)CS[C@H]12)c1csc(N)n1.
Series [3] concerns CO/N=C(\C(=O)N[C@@H]1C(=O)N2C(C(=O)[O-])=C(C[N+]3(C)CCCC3)CS[C@H]12)c1csc(N)n1.
In series [4] the test system is CCN1CCN(C(=O)N[C@@H](C(=O)N[C@@H]2C(=O)N3[C@@H]2SC(C)(C)[C@@H]3C(=O)O)c2ccccc2)C(=O)C1=O.
Series [5] relates to CC(C)(O/N=C(\C(=O)N[C@@H]1C(=O)N2C(C(=O)[O-])=C(C[n+]3ccccc3)CS[C@H]12)c1csc(N)n1)C(=O)O.

For orientation: Km means the concentration of substrate that gives half-maximal velocity. Usually kcat stands for the maximal rate divided by the concentration of active sites. In general, kcat/Km refers to the second-order rate constant that governs catalysis at low substrate concentration.

As for CIM-2 (Chryseobacterium indologenes), the Km in series [1] is 2,300 ± 300 µM; in series [2], 180 ± 20 µM; in series [3], 700 ± 200 µM; in series [4], 2,400 ± 500 µM; in series [5], 2,000 ± 300 µM. Besides, the kcat in series [1] was determined as 2000 ± 200 s⁻¹; in series [2] it was 820 ± 30 s⁻¹; in series [3], 28 ± 5 s⁻¹; in series [4], 48 ± 7 s⁻¹; in series [5], 380 ± 50 s⁻¹. The kcat/Km is 900000 ± 200000 M⁻¹ s⁻¹ in series [1]; 4.7e+06 ± 700000 M⁻¹ s⁻¹ in series [2]; 40000 ± 20000 M⁻¹ s⁻¹ in series [3]; 20000 ± 7000 M⁻¹ s⁻¹ in series [4]; 180000 ± 50000 M⁻¹ s⁻¹ in series [5].
On to CJO-1 (Chryseobacterium joostei), for which the Km is 2,700 ± 500 µM in series [1]; 126 ± 4 µM in series [2]; 440 ± 60 µM in series [3]; 1,900 ± 300 µM in series [4]; 1,000 ± 400 µM in series [5]. The kcat was 280 ± 40 s⁻¹ in series [1]; 528 ± 6 s⁻¹ in series [2]; 19 ± 2 s⁻¹ in series [3]; 30 ± 4 s⁻¹ in series [4]; 110 ± 30 s⁻¹ in series [5]. In addition, the kcat/Km in series [1] was 100000 ± 30000 M⁻¹ s⁻¹; in series [2] it was 4.2e+06 ± 200000 M⁻¹ s⁻¹; in series [3], 43000 ± 9000 M⁻¹ s⁻¹; in series [4], 16000 ± 5000 M⁻¹ s⁻¹; in series [5] it was 100000 ± 60000 M⁻¹ s⁻¹.
